Reference: patent publication US20210162000A1 (INSTITUT DE CARDIOLOGIE DE MONTREAL, published 2021)

How the values were obtained:
[1] = biological target: T1, Recombinant PCSK9-His6 of the Circulex in vitro competitive binding assay (human, UniProt Q8NBP7 31-692, limits assumed); assay: solid phase PCSK9-LDLR EGF-AB in vitro competitive binding assay (Circulex CY-8150), 100 ng (13.46 nM) PCSK9-His6 with increasing SEQ ID NO. 6
T1 construct: also called WT PCSK9; wild-type human recombinant His-tagged PCSK9; not shown: His tag
Experimental: Solid phase PCSK9-LDLR epidermal growth factor precursor homology domain A and B (LDLR EGF-AB) in vitro competitive binding assay (Circulex; Cat. #CY-8150) was performed with 100 ng (13.46 nM) of recombinant PCSK9-His6 together with increasing amount of recombinant SEQ ID NO. 6 according to manufacturer's recommendations. Using this in vitro competitive assay, SEQ ID NO.

[2] = biological target: T2, Full-length human V5-tagged PCSK9 (human, UniProt Q8NBP7 31-692, limits assumed); assay: co-IP from transfected HEK293 cells, immunoblot
T2 construct: Expressed from pIRES2-EGFP in transfected cells. proPCSK9 and mature forms were both seen in the IPs; also called PCSK9-V5; wild-type PCSK9-V5
Experimental: All other Co-IP experiments were performed as described without the cross-linking step and in SDS-deprived RIPA buffer. HA-tagged proteins and GRP94 were immunoprecipitated with mouse anti-HA-tag (1:500; Cat. #H3663, Sigma-Aldrich) or rat anti-Grp94 (9G10, 1:1000; Cat. #ADI-SPA-850, Enzo Life Sciences).
We next decided to map GRP94 domain(s) important for PCSK9 protein-protein interaction. The overall domain structure of GRP94 includes a signal polypeptide (amino acids; aa1-21) followed by a N-terminal enzymatic ATP-binding domain (aa22-651), client-binding domain (CBD; aa652-678), C-terminal dimerization domain (aa679-799) and a KDEL polypeptide sequence (aa800-803) allowing retention of GRP94 in the endoplasmic reticulum. (Dollins et al., 2007; Maki et al., 1990; Wu et al., 2012) Thus, we first generated cDNA constructs encoding secretable HA-tagged forms of human GRP94 lacking its C-terminal KDEL polypeptide (SEQ ID. NO. 66; FIG. 2). HEK293 cells were transfected without or with SEQ ID. NO. 66 in absence or presence of PCSK9-V5 (FIG. 2a). […] NO. 66 is well expressed (Input; IB: HA) and secreted into media and that SEQ ID. NO. 66 interacts in complex with PCSK9 following immunoprecipitation (IP: V5; FIG. 2b). […] It was reported that a 27 aa C-terminal hydrophobic loop structure within GRP94 client-binding domain (CBD, amino acids aa652-678; ⁶⁵²[…], SEQ ID. NO. 4) was important for folding and interaction with Toll-like receptors and integrins. (Wu et al., 2012) Deletion or alanine-scan mutations in SEQ ID. NO. […] (Wu et al., 2012) Similarly, we generated two mutated constructs in which critical residues within the GRP94-CBD domain where mutated into alanine (AA1: ⁶⁵²[…], SEQ ID. NO. 78 and AA2: ⁶⁵²[…], SEQ ID. NO. 79). HEK293 cells were transfected with either an empty vector (−) or with SEQ ID. NO. 66, 64 or 65 constructs in presence or absence of PCSK9-V5 (FIG. 2b).

T2 sequence (Q8NBP7 31-692 limits assumed): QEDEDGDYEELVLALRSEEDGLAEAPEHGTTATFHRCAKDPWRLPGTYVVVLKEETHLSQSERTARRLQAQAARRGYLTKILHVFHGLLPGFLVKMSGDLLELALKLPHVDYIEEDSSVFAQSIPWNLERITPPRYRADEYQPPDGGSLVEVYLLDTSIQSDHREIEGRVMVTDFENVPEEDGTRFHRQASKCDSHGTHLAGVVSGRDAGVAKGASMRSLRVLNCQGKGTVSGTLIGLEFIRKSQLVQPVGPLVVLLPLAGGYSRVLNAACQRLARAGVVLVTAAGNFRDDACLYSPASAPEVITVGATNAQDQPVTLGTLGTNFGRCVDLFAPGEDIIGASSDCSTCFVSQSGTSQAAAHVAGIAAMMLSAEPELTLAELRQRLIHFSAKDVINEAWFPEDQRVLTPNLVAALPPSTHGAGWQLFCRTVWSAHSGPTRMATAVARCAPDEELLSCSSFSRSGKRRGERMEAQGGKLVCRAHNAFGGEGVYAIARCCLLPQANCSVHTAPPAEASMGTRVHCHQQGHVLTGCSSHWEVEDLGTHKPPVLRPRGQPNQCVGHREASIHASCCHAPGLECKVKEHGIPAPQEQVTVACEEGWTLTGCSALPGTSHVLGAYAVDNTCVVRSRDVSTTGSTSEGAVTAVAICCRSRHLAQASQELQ
T1 sequence (Q8NBP7 31-692 limits assumed): as above

IC50 [1] [µM]	binding result [2]	Binder
~0.113		Recombinant SEQ ID NO 6, GRP94 CBD-CT (aa 652-799), His6 tag purified from E. coli (other, also called NO; 43; GRP94 CDB-CT domain; not shown: His6 tag from pET24b(+)) YGWSGNMERIMKAQAYQTGKDISTNYYASQKKTFEINPRHPLIRDMLRRIKEDEDDKTVLDLAVVLFETATLRSGYLLPDTKAYGDRIERMLRLSLNIDPDAKVEEEPEEEPEETAEDTTEDTEQDEDEEMDVGTDEEEETAKESTAE
	no binding	SEQ ID NO 64, alanine-scanning mutant of GRP94 lacking KDEL (taken as AA1) (other) DDEVDVDGTVEEDLGKSREGSRTDDEVVQREEEAIQLDGLNASQIRELREKSEKFAFQAEVNRMMKLIINSLYKNKEIFLRELISNASDALDKIRLISLTDENALSGNEELTVKIKCDKEKNLLHVTDTGVGMTREELVKNLGTIAKSGTSEFLNKMTEAQEDGQSTSELIGQFGVGFYSAFLVADKVIVTSKHNNDTQHIWESDSNEFSVIADPRGNTLGRGTTITLVLKEEASDYLELDTIKNLVKKYSQFINFPIYVWSSKTETVEEPMEEEEAAKEEKEESDDEAAVEEEEEEKKPKTKKVEKTVWDWELMNDIKPIWQRPSKEVEEDEYKAFYKSFSKESDDPMAYIHFTAEGEVTFKSILFVPTSAPRGLFDEYGSKKSDYIKLYVRRVFITDDFHDMMPKYLNFVKGVVDSDDLPLNVSRETLQQHKLLKVIRKKLVRKTLDMIKKIADDKYNDTFWKEFGTNIKLGVIEDHSNRTRLAKLLRFQSSHHPTDITSLDQYVERMKEKQDKIYFMAGSSRKEAESSPFVERLLKKGYEVIYLTEPVDEYCIQALPEFDGKRFQNVAKEGVKFDESEKTKESREAVEKEFEPLLNWMKDKALKDKIEKAVVSQRLTESPCALVASQYAASAAAAAIMKAQAYQTGKDISTNYYASQKKTFEINPRHPLIRDMLRRIKEDEDDKTVLDLAVVLFETATLRSGYLLPDTKAYGDRIERMLRLSLNIDPDAKVEEEPEEEPEETAEDTTEDTEQDEDEEMDVGTDEEEETAKESTAEYPYDVPDYA
	no binding	SEQ ID NO 65, alanine-scanning mutant of GRP94 lacking KDEL (taken as AA2) (other) DDEVDVDGTVEEDLGKSREGSRTDDEVVQREEEAIQLDGLNASQIRELREKSEKFAFQAEVNRMMKLIINSLYKNKEIFLRELISNASDALDKIRLISLTDENALSGNEELTVKIKCDKEKNLLHVTDTGVGMTREELVKNLGTIAKSGTSEFLNKMTEAQEDGQSTSELIGQFGVGFYSAFLVADKVIVTSKHNNDTQHIWESDSNEFSVIADPRGNTLGRGTTITLVLKEEASDYLELDTIKNLVKKYSQFINFPIYVWSSKTETVEEPMEEEEAAKEEKEESDDEAAVEEEEEEKKPKTKKVEKTVWDWELMNDIKPIWQRPSKEVEEDEYKAFYKSFSKESDDPMAYIHFTAEGEVTFKSILFVPTSAPRGLFDEYGSKKSDYIKLYVRRVFITDDFHDMMPKYLNFVKGVVDSDDLPLNVSRETLQQHKLLKVIRKKLVRKTLDMIKKIADDKYNDTFWKEFGTNIKLGVIEDHSNRTRLAKLLRFQSSHHPTDITSLDQYVERMKEKQDKIYFMAGSSRKEAESSPFVERLLKKGYEVIYLTEPVDEYCIQALPEFDGKRFQNVAKEGVKFDESEKTKESREAVEKEFEPLLNWMKDKALKDKIEKAVVSQRLTESPCALVASQYGWSGNMERIMKAQAYATGKAISTNAAASQKKTFEINPRHPLIRDMLRRIKEDEDDKTVLDLAVVLFETATLRSGYLLPDTKAYGDRIERMLRLSLNIDPDAKVEEEPEEEPEETAEDTTEDTEQDEDEEMDVGTDEEEETAKESTAEYPYDVPDYA
	binds	Secretable ~20 kDa HA-tagged protein containing the CBD and C-terminal domains of GRP94 (CBD-CT; SEQ ID NO 46) (other) YGWSGNMERIMKAQAYQTGKDISTNYYASQKKTFEINPRHPLIRDMLRRIKEDEDDKTVLDLAVVLFETATLRSGYLLPDTKAYGDRIERMLRLSLNIDPDAKVEEEPEEEPEETAEDTTEDTEQDEDEEMDVGTDEEEETAKESTAEYPYDVPDYA
